{"source": "patent US20090257987A1", "about": "“Method of generating dopamine-secreting cells” (Ramot At Tel Aviv University Ltd., priority 2008, published 2009)", "key": {"human MSCs [1]": {"tested_on": "human MSCs", "experiment": "Western blot analysis of TH protein expression after differentiation protocols", "format": "cell-based", "details": "result in words", "method": "MSC isolation, culture, and characterization: Fresh bone marrow aspirates harvested from the iliac crests of adult donors (age 19-76) were diluted with Hanks' balanced salt solution. Mononuclear cells were isolated by centrifugation in Unisep-Maxi tubes (Novamed, Jerusalem, Israel) by density gradient. The cells were then plated in Dulbecco's Modified Eagle's Medium (DMEM) supplemented with 15% fetal bovine serum (FBS), 2 mM glutamine, 100 μg/ml streptomycin, 100 units/ml penicillin, 12.5 units/ml nystatin (Biological Industries, Beit HaEmek, Israel) in polystyrene plastic 75-cm^2 tissue-culture flasks. After 24 hours, nonadherent cells were removed. The medium was changed every 3-4 days. Adherent cells were cultured to 70%-90% confluence and reseeded at a density of 5,000-10,000 cells/cm^2. The cells were maintained at 37° C. in a humidified 5% CO2 incubator. The MSCs were characterized for their cell-surface phenotype and their mesenchymal differentiation capacity, as previously described (Blondheim er al., 2006, Stem Cells Dev 15:141-164).\nInduction of differentiation: The differentiation protocol was composed of 2 steps. In step 1, cells were transferred to serum-free medium (DMEM) supplemented with 2 mM glutamine, 100 μg/ml streptomycin, 100 units/ml penicillin, 12.5 units/ml nystatin (Biological Industries), N2 supplement (Invitrogen, New Haven, Conn.) and 20 ng/ml fibroblast growth factor 2 and epidermal growth factor (both from R&D Systems, Minneapolis, Minn.) for 48-72 hours. In step 2, the medium was changed to Basic induction medium containing Neurobasal, B27 (both from Invitrogen), in addition to 1 mM dibutyryl cyclic AMP (dbcAMP), 3-isobutyl-1-methyl-xanthine (IBMX), and 200 μM ascorbic acid (all from Sigma, St Louis, Mo.). The following factors were added to the Basic induction medium in different combinations: brain-derived neurotrophic factor (BDNF; 50 ng/ml), glial-derived neurotrophic factor (GDNF;10 ng/ml), neurturin (100 ng/ml), neurotrophin 3 (NT3; 50 ng/ml), and fibroblast growth factor 8 (FGF8; 100 ng/ml (all from Cytolab, Rehovot, Israel); transforming growth factor β3 (TGFβ3; 2 ng/ml), sonic hedgehog (Shh; 500 ng/ml, both from R&D); estrogen (0.1 μM, Sigma); and all-trans-retinoic acid (RA; 0.1 μM, Sigma).\nWestern blot: Total protein was extracted by suspending the harvested cells in lysis buffer containing 10 mM Tris base (U.S. Biochemical Corporation, Cleveland, Ohio), 5 mM EDTA (Merck, Whitehouse Station, N.J.), 140 mM sodium chloride (NaCl; BioLab, Jerusalem, Israel), 10 mM sodium fluoride (NaF; Sigma), 0.5% NP 40 (U.S. Biochemical Corporation), and 1 μM phenylmethylsulfonyl fluoride (PMSF; Sigma). Following incubation on ice for 30 minutes, the mixture was centrifuged and the supernatants were collected. Protein content was determined by the BCA protein assay kit (Pierce, Rockford, Ill.). Twenty-five micrograms of protein from each sample were subjected to sodium dodecyl-sulfate (SDS)-polyacrylamide gel electrophoresis (PAGE) (12.5% acrylamide), followed by electrophoretic transfer to nitrocellulose membrane (Schleicher & Schuell, Dassel, Germany). Membranes were probed by mouse anti-TH (1:10,000, Sigma) and mouse anti β-actin (1:10,000, Chemicon, Billerica, Mass.) and then by goat anti-mouse horseradish peroxidase conjugated antibody (1:10,000) (Jackson, West Grove, Pa.) and rabbit anti-emerin (1:5,000, Santa Cruz Biotechnology, Santa Cruz, Calif.), followed by goat anti-rabbit horseradish peroxidase conjugated secondary antibody (1:10,000, Sigma). Adequate controls included HeLa cells (ATCC, Manassas, Va.) as negative control and neuroblastoma M17 cells (BE (2)-M17, ATCC) as positive control. Proteins of interest were detected using the enhanced Super Signal® chemiluminescent detection kit (Pierce)."}, "human MSCs [2]": {"tested_on": "human MSCs", "experiment": "Immunocytochemistry for neuronal markers Tuj1 and NeuN", "format": "cell-based", "method": "Induction of differentiation: The differentiation protocol was composed of 2 steps. In step 1, cells were transferred to serum-free medium (DMEM) supplemented with 2 mM glutamine, 100 μg/ml streptomycin, 100 units/ml penicillin, 12.5 units/ml nystatin (Biological Industries), N2 supplement (Invitrogen, New Haven, Conn.) and 20 ng/ml fibroblast growth factor 2 and epidermal growth factor (both from R&D Systems, Minneapolis, Minn.) for 48-72 hours. In step 2, the medium was changed to Basic induction medium containing Neurobasal, B27 (both from Invitrogen), in addition to 1 mM dibutyryl cyclic AMP (dbcAMP), 3-isobutyl-1-methyl-xanthine (IBMX), and 200 μM ascorbic acid (all from Sigma, St Louis, Mo.). […] Cells were photographed with a fluorescence Olympus IX70-[…] microscope with a fluorescent light source (excitation wavelength, 330-385 nm; barrier filter, 420 nm) and a U-MNU filter cube (Olympus, Center Valley, Pa.)."}}}
{"molecule": "brain-derived neurotrophic factor (protein, UniProt P23560 19-247, looked up, brain-derived neurotrophic factor (50 ng/ml) added to the Basic induction medium) Neurotrophic factor BDNF …: APMKEANIRGQGGLAYPGVRTHGTLESVNGPKAGSRGLTSLADTFEHVIEELLDEDQKVRPNEENNKDADLYTSRVMLSSQVPLEPPLLFLLEEYKNYLDAANMSMRVRRHSDPARRGELSVCDSISEWVTAADKKTAVDMSGGTVTVLEKVPVSKGQLKQYFYETKCNPMGYTKEGCRGIDKRHWNSQCRTTQSYVRALTMDSKKRIGWRFIRIDTSCVCTLTIKRGR", "values": [{"measurement": "TH protein expression level normalized to actin", "setting": "human MSCs [1]; listed as BDNF", "value": "directly affected the TH protein expression level"}, {"measurement": "TH protein expression level normalized to actin", "setting": "human MSCs [1]; listed as BDNF alone", "value": "significant results"}, {"measurement": "NeuN staining", "setting": "human MSCs [2]", "value": "stained positive"}, {"measurement": "Tuj 1 expression", "setting": "human MSCs [2]; versus untreated MSCs", "value": "higher levels"}]}
